In patent US20230165981A1, “[161Tb]-BASED RADIOPEPTIDES” (priority 2021, published 2023):
Where “and” joins values, the source holds several entries; their conditions need not be identical. Identical values can stand only once. Like-named read-outs stand apart in the source and are kept apart here. Starred links: 1 amine or outer side, 2 acyl side, 3 side chain; linkers in the order of their positions; H or OH if unused. Positions of bridges follow the written chain, without caps; N, C: chain ends. Non-standard residues stand in square brackets, D forms with d. Residues, ends and D or L forms follow the SMILES beside them. *: point of attachment. DOTA = O=C(O)CN1CCN(CC(=O)O)CCN(CC(=O)*)CCN(CC(=O)O)CC1; X1 = NC(=O)Nc1ccc(CC(N[*:1])C(=O)[*:2])cc1; Phe(4-Cl) = N[CH](Cc1ccc(Cl)cc1)C(=O)O

What was measured:
[1] = Assessment of early side effects in therapy mice; settings: endpoint of therapy
Description: Early side effects were assessed based on the RBW of each mouse which was monitored every second day. When an endpoint was reached or at the end of the study (after 49 days), relevant organs and tissues were collected, weighed and put into relation to the brain mass and body weight of the respective mouse. This allowed comparison of organ-to-brain and organ-to-body mass weight ratios. In addition, blood plasma parameters from blood collected immediately after euthanasia were measured.
RBW, organ mass and mass ratios at the endpoint: The RBW was monitored every second day. Mice were euthanized when a predefined endpoint criterion was reached or when the study was terminated at Day 49. RBWs, organ masses, organ mass ratios (kidney-to-brain, liver-to-brain and spleen-to-brain) and organ mass to body weight ratios (kidney-to-body mass, liver-to-body mass and spleen-to-body mass) were analyzed for significance using a one-way ANOVA test with a Tukey’s multiple comparisons post-test. A p-value of <0.05 was considered as statistically significant.
Blood plasma chemistry: Immediately before euthanasia of the mice that reached the endpoint, blood was sampled from the retrobulbar vein. The values of creatinine (CRE), blood urea nitrogen (BUN), alkaline phosphatase (ALP), total bilirubin (TBIL) and albumin (ALB) were determined in the plasma after centrifugation of the blood using a dry chemistry analyzer (DRI-CHEM 4000i, FUJIFILM, Japan). The average blood plasma parameters of each group were analyzed for significance using a one-way ANOVA test with a Tukey’s multiple comparisons post-test. A p-value of <0.05 was considered as statistically significant.

[2] = n-octanol/PBS distribution coefficient (logD), shake-flask method; assay type: physicochemical; settings: n-octanol/PBS pH 7.4
Description: An aliquot of the radiolabeled peptide (0.5 MBq, 25 µL) was added to a mixture of 1475 µL PBS pH 7.4 and 1500 µL n-octanol. The respective tubes were vortexed for 60 sec and centrifuged for 6 min at 2500 rpm followed by the measurement of the activity concentration in a defined volume of each layer using a γ-counter (Perkin Elmer, Wallac Wizard 1480). The logD values were calculated as the logarithm of the ratio of counts per minute (cpm) measured in the n-octanol phase relative to the cpm measured in the PBS pH 7.4 phase. The experiments were performed three times with five replicates for each radiopeptide and the logD value was expressed as the average ± standard deviation (SD) of the values obtained in each experiment. […] A p value <0.05 was considered statistically significant.

AR42J tumors = assay: Preclinical therapy study in AR42J tumor-bearing mice; assay type: in vivo
AR42J tumor-bearing mice [3] = settings: 0.2 nmol/mouse
Description: All applicable international, national, and/or institutional guidelines for the care and use of animals were followed. In particular, all animal experiments were carried out according to the guidelines of Swiss Regulations for Animal Welfare. The preclinical studies were ethically approved by the Cantonal Committee of Animal Experimentation and permitted by the responsible cantonal authorities (license N° 75721 and 79692). Five-week-old female, athymic nude mice (CD-1 Foxn-⅟nu) were obtained from Charles River Laboratories (Sulzfeld, Germany). Mice were subcutaneously inoculated with AR42J tumor cells (5 × 10^6 cells in 100 µL PBS) for SPECT/CT imaging, biodistribution and therapy studies. The SPECT/CT and biodistribution studies were performed 10-14 days after tumor cell inoculation when the tumor size reached a volume of ~250 mm^3.
The mice were sacrificed at 0.5 h, 2 h, 4 h, 24 h and 48 h p.i, selected tissues and organs were collected, weighed, and the accumulated activity was counted using a γ-counter (Perkin Elmer). The decay-corrected data were listed as % IA/g. The data were analyzed for significance using a two-way ANOVA with Tukey’s multiple comparison post-tests. A p-value of <0.05 was considered statistically significant.

AR42J tumor-bearing mice [4] = assay: Biodistribution: optimum injected molar amount; settings: 2 h p.i.
[5] = system: metastatic functional neuroendocrine neoplasm of the pancreatic tail; assay: First-in-man scintigraphy and SPECT/CT; assay type: in vivo, human; settings: 0.5-113 hours p.i., patient
Description: A patient with a metastatic functional neuroendocrine neoplasm of the pancreatic tail was injected with 161TbDOTATOC. Scintigraphy and SPECT were recorded. […] FIGS. 18A, 18B, 18C, and 18D show whole-body images obtained at 0.5 hours post-injection (p.i.) (FIG. 18A), 2.5 hours p.i. (FIG. 18B), 20 hours p.i. (FIG. 18C), and 113 hours p.i. (FIG. 18D) of 161Tb-DOTATOC. Early blood-pool activity was noticed in the heart (H) and blood vessels (BV).
FIGS. 19A, 19B, and 19C show SPECT/CT images obtained at 19 hours after injection of 161Tb-DOTATOC. (FIG. 19A) Coronal section, (FIG. 19B) sagittal section, and (FIG. 19C) transverse section.

in vivo = settings: female, athymic nude (CD-1 Foxn-1nu), mouse, iv, 1 nmol/mouse, total radioactivity
Description: (§1) Five-week-old female, athymic nude mice (CD-1 Foxn-⅟nu) were obtained from Charles River Laboratories (Sulzfeld, Germany). Mice were subcutaneously inoculated with AR42J tumor cells (5 × 10^6 cells in 100 µL PBS) for SPECT/CT imaging, biodistribution and therapy studies. The SPECT/CT and biodistribution studies were performed 10-14 days after tumor cell inoculation when the tumor size reached a volume of ~250 mm^3.
(§2) The mice were sacrificed at 2 h and 24 h post injection (p.i.). Selected tissues and organs were collected, weighed, and the accumulated activity was counted in a γ-counter. The decay-corrected data were listed as the percentage of the injected activity per gram of tissue mass (% IA/g). The data were analyzed for significance using a two-way ANOVA with Tukey’s multiple comparison post-tests. A p-value of <0.05 was considered statistically significant.

AR42J tumor-bearing mice [6] = settings: 24 h p.i., 1 nmol/mouse
Description: as §1, §2

C[C@@H](O)[C@@H]1NC(=O)[C@H](CCCCN)NC(=O)[C@@H](Cc2c[nH]c3ccccc23)NC(=O)[C@H](Cc2ccc(O)cc2)NC(=O)[C@@H](NC(=O)[C@@H](Cc2ccccc2)NC(=O)CN2CCN(CC(=O)O)CCN(CC(=O)O)CCN(CC(=O)O)CC2)CSSC[C@@H](C(=O)N[C@H](CO)[C@@H](C)O)NC1=O [[^161Tb]Tb-DOTATOC] [metal not drawn]
ALB (albumin) [1]: 23 ± 2 g/L | ALP (alkaline phosphatase) [1]: 76 ± 21 U/L | BUN (blood urea nitrogen) [1]: 5.8 ± 1.0 mmol/L | CRE (plasma creatinine) [1]: <18 (n=6) µmol/L | TBIL (total bilirubin) [1]: < 3 µmol/L and 4 ± 1 µmol/L | LogD [2]: -3.3 ± 0.2 | Median survival (AR42J tumors; 2 x 10 MBq, 0.2 nmol): 21 days | tumor growth delay (AR42J tumors; 2 x 10 MBq, 0.2 nmol, Day 0 and 7): 9.0 ± 5.5 days | Time frame of euthanasia (AR42J tumors; 2 x 10 MBq, 0.2 nmol, end of study = 49 days): 20 to 26 days | tumor doubling time (AR42J tumors; regrowth phase): 3.4 ± 3.6 days | Biodistribution: AR42J Tumor (AR42J tumor-bearing mice [3]; 0.5 h p.i.): 15 ± 2 % IA/g | Biodistribution: AR42J Tumor (AR42J tumor-bearing mice [3]; 2 h p.i.): 14 ± 1 % IA/g | Biodistribution: Adrenals (AR42J tumor-bearing mice [3]; 2 h p.i.): 0.43 ± 0.11 % IA/g | Biodistribution: Femur (AR42J tumor-bearing mice [3]; 2 h p.i.): 0.12 ± 0.03 % IA/g | Biodistribution: Heart (AR42J tumor-bearing mice [3]; 2 h p.i.): ≤0.10 % IA/g | Biodistribution: Intestines (AR42J tumor-bearing mice [3]; 2 h p.i.): 0.24 ± 0.01 % IA/g | Biodistribution: Kidneys (AR42J tumor-bearing mice [3]; 2 h p.i.): 9.4 ± 0.4 % IA/g | Biodistribution: Liver (AR42J tumor-bearing mice [3]; 2 h p.i.): 0.19 ± 0.03 % IA/g | Biodistribution: Lung (AR42J tumor-bearing mice [3]; 2 h p.i.): 0.47 ± 0.05 % IA/g | Biodistribution: Muscle (AR42J tumor-bearing mice [3]; 2 h p.i.): ≤0.10 % IA/g | Biodistribution: Pancreas (AR42J tumor-bearing mice [3]; 2 h p.i.): 1.5 ± 0.2 % IA/g | Biodistribution: Spleen (AR42J tumor-bearing mice [3]; 2 h p.i.): 0.18 ± 0.02 % IA/g | Tu-to-adr (tumor-to-adrenals) (AR42J tumor-bearing mice [4]; 0.040 nmol/mouse): 24 ± 1 | Tu-to-blood (AR42J tumor-bearing mice [4]; 0.040 nmol/mouse): 187 ± 12 | Tu-to-kidney (AR42J tumor-bearing mice [4]; 0.040 nmol/mouse): 1.8 ± 0.2 | Tu-to-liver (AR42J tumor-bearing mice [4]; 0.040 nmol/mouse): 73 ± 3 and 74 ± 3 | Tu-to-adr (tumor-to-adrenals) (AR42J tumor-bearing mice [4]; 0.20 nmol/mouse): 34 ± 7 | Tu-to-blood (AR42J tumor-bearing mice [4]; 0.20 nmol/mouse): 221 ± 56 | Tu-to-kidney (AR42J tumor-bearing mice [4]; 0.20 nmol/mouse): 1.5 ± 0.1 | Tu-to-liver (AR42J tumor-bearing mice [4]; 0.20 nmol/mouse): 76 ± 14 | Biodistribution: AR42J Tumor (AR42J tumor-bearing mice [4]; 1.0 nmol/mouse): 8.2 ± 0.2 % IA/g | Biodistribution: Adrenals (AR42J tumor-bearing mice [4]; 1.0 nmol/mouse): 0.25 ± 0.06 % IA/g | Biodistribution: Blood (AR42J tumor-bearing mice [4]; 1.0 nmol/mouse): ≤0.10 % IA/g | Biodistribution: Femur (AR42J tumor-bearing mice [4]; 1.0 nmol/mouse): ≤0.10 % IA/g | Biodistribution: Heart (AR42J tumor-bearing mice [4]; 1.0 nmol/mouse): ≤0.10 % IA/g | Biodistribution: Intestines (AR42J tumor-bearing mice [4]; 1.0 nmol/mouse): 0.21 ± 0.13 % IA/g | Biodistribution: Kidneys (AR42J tumor-bearing mice [4]; 1.0 nmol/mouse): 9.9 ± 1.3 % IA/g | Biodistribution: Liver (AR42J tumor-bearing mice [4]; 1.0 nmol/mouse): 0.17 ± 0.01 % IA/g | Biodistribution: Lung (AR42J tumor-bearing mice [4]; 1.0 nmol/mouse): 0.27 ± 0.03 % IA/g | Biodistribution: Muscle (AR42J tumor-bearing mice [4]; 1.0 nmol/mouse): ≤0.10 % IA/g | Biodistribution: Pancreas (AR42J tumor-bearing mice [4]; 1.0 nmol/mouse): 0.71 ± 0.07 % IA/g | Biodistribution: Spleen (AR42J tumor-bearing mice [4]; 1.0 nmol/mouse): 0.11 ± 0.02 % IA/g | Biodistribution: Stomach (AR42J tumor-bearing mice [4]; 1.0 nmol/mouse): 0.74 ± 0.38 % IA/g | uptake in whole-body scintigraphy [5]: Pathological uptake was demonstrated in the bilobar liver

CC(O)C1NC(=O)C(CCCCN)NC(=O)C(Cc2ccc(NC(N)=O)cc2)NC(=O)C(Cc2ccc(O)cc2)NC(=O)C(NC(=O)C(Cc2ccc(Cl)cc2)NC(=O)CN2CCN(CC(=O)O)CCN(CC(=O)O)CCN(CC(=O)O)CC2)CSSCC(C(=O)NC(Cc2ccc(O)cc2)C(N)=O)NC1=O (centres unmarked) [metal not drawn] ({DOTA}-[Phe(4-Cl)]CY[X1]KTCY-NH2; disulfide 2-7; configuration not given here)
tissue uptake at 2 h (in vivo; femur): 0.2 ± 0.05 %ID/g | tissue uptake at 2 h (in vivo; kidneys): 12 ± 2 %ID/g | tissue uptake at 2 h (in vivo; lung): 1 ± 0.2 %ID/g | tissue uptake at 24 h (in vivo; spleen): 0.13 ± 0.03 %ID/g | ALB (albumin) [1]: 22 ± 1 g/L | ALP (alkaline phosphatase) [1]: 65 ± 15 U/L | BUN (blood urea nitrogen) [1]: 9.1 ± 1.5 mmol/L | CRE (plasma creatinine) [1]: <18 (n=5) 18 (n=1) µmol/L | TBIL (total bilirubin) [1]: <3 (n=5) 3 (n=1) µmol/L | Biodistribution: Muscle (AR42J tumor-bearing mice [3]; 2 h p.i.): ≤0.10 % IA/g | Biodistribution: Spleen (AR42J tumor-bearing mice [3]; 2 h p.i.): 0.41 ± 0.08 % IA/g | Tumor-to-liver (AR42J tumor-bearing mice [6]): 63 ± 18
